Results: patent US20250368742A1
Residue numbers refer to the chain shown, from its start.

B1: 3F9 (antibody, human IgG1, kappa, V domains shown)
VH: QVQLVESGGGLVKPGGSLRLSCAASGFTFSNYAMSWIRQAPGKGLEWVSYISPGGDYIYYADSVKGRFTISRDNAKNSLYLQMNSLRAEDTAVYYCTTDRRHYGSYAMDYWGQGTLVTVSS
VL: DIVMTQSPLSLPVTPGEPASISCRSSKSLLHSNLNTYLYWFLQKPGQSPQILIYRMSNLASGVPDRFSGSGSGTAFTLKISRVEAEDVGVYYCMQHLEYPFTFGPGTKLEIKR
B2: 13A9 (antibody, human IgG1, kappa, V domains shown)
VH: QVQLQQSGAELVRPGTSVKVSCKASGYAFTNYLIEWVKQRPGQGLEWIGAINPGSGATNYNEKFKDKARLTADKSSNTAYLQFSSLTSDDSAVYFCARFLGNYFDNWGQGATLTVSS
VL: DIQMTQSPASLSASVGETVTITCRASGNIHSYLAWYQQKQGKSPQLLVYYAETLADGVPSRFSGRGSGTQYSLKINSLQPEDFGSYFCQQFWTTPYTFGGGTKVEIKR
B3: #31 (antibody, V domains shown)
VH: EVQLQQSGPELVKPGASVKVSCKASGYAFTKYNIYWVKQSHGKSLEWIGYIDPYNGGTVQNQKFKGKATLTVDKSSSTAYMHLNSLTSEDSAVYYCATTDGYSLFTYWGQGTLVTVSS
VL: DIQMTQTTSSLSASLGDRVTISCRASQDIGNYLNWYQQKPDGTVKLLIYYTSRLHSGVPSRFSGSGSGTDYSLTISNLEQEDIATYFCQQGNTLPFTFGSGTKLEIK
B4: #36 (antibody, V domains shown)
VH: B3 VH with E1Q, Q60Y, S118A
VL: B3 VL with G30S
B5: #34 (antibody, V domains shown)
VH: B3 VH with E1Q, Q5K
VL: DIVLTQSPTTMAASPGEKITITCSASSSISSNYLHWYQQKPGFSPKLLIYRTSNLASGVPARFSGSGSGTSYSLTIGTMEAEDVATYYCQQGSSIPFTFGSGTKLEIK
B6: #40 (antibody, V domains shown)
VH: B3 VH with E1Q, Q60Y, S118A
VL: DIQMTQTTSSLSASLGDRVTITCSAGQGINNYLNWYQQKPDGTVKLLIFYTSSLQSGVPSRFSGSGSGADYSLTISNLEPEDIATYYCQQYSKLPLTFGAGTKLELK
B7: 6E1.1.12 (antibody, human IgG1, kappa, V domains shown)
VH: QGQMQQSGAELVKPGASVKLSCKTSGFTFSDNYISWLKQKPGQSLEWIAWIYAGTGGSSYNQKFRDKAQLTVDTSSRTAYMQLSSLTTEDSAIYYCARHDYYGTSGAWFAYWGRGTLVTVSA
VL: DVLMTQTPLSLPVSLGDQASISCRSSQHIVHSNENTYLEWYLQKPGQSPKLLIYKVSNRFSGVPDRFSGSGSGTDFTLKISRVEAEDLGVYYCFQGSHVPWTFGGGTKVEIKR
B8: #38 (antibody, V domains shown)
VH: QVQLQQSGAELARPGASVKLSCKASGYTFSIHWMQWVKQRPGQGLEWIGAIYPGNGDTKYTQKFKGKATLTADKSSSTAYMQLSNLASEDSAVYYCATLYGNYEAYWGQGTLVTVSA
VL: DIVLTQSPASLSASVGETVTITCGASENIYGALNWYQRKQGKSPQLLIYGTTNLADGMSSRFSGSGSGRQYSLKISSLHPDDVATYYCQNVLTTPPWTFGGGTKLEIK
B9: #39 (antibody, V domains shown)
VH: QVQLQQSGAELVRPGTSVKVSCKASGYAFTDYLIEWVKQRPGQGLEWIGGINPGSGSTNYNEKFKGKAILTADKSSSTAYMQLSSLTSDDSAVYFCARLDGNYVGYWGQGTTLTVSS
VL: DILLTQSPASLSASVGETVTITCRASGNIHNYLAWYQQKQGKSPQLLVYHAKTLADGVPSRFSGSGSGTQYSLKINSLQPEDFGSYYCQHFWSTPWTFGGGTKLEIK

The binders below were run against shed MICA002 polypeptide (human) (UniProt Q29983) (assay: capture ELISA (anti-hFc / antibody / shed antigen / biotin-6D4)).

Binder | EC50 [µg/mL] | maxOD
B1 | 0.131 | 3.96

The binders below were run against shed MICA004 polypeptide (human) (UniProt Q29983) in the same assay as above.

Binder | EC50 [µg/mL] | maxOD
B1 | 0.255 | 2.7

These binders were tested against shed MICA008 polypeptide (human) (UniProt Q29983) in the same assay as above.

Binder | EC50 [µg/mL] | maxOD
B1 | 0.134 | 1.51

Each binder was assayed against shed MICA002 polypeptide (human) (UniProt Q29983) (assay: ELISA: antibody titrated on anti-hFc plate, shed MICA002 captured, detection NKG2D-His + anti-His-HRP).

Binder | EC50 [µg/mL]
B1 | 0.167
B2 | 0.06

Biological target: shed MICA002 polypeptide (human) (UniProt Q29983)
Assay: capture ELISA (anti-hFc / antibody / shed antigen / biotin-6D4)
Remark: another data set of the same source

Binder | EC50 [µg/mL] | Max OD450
B1 | 0.107 | 1.82
B2 | 0.176 | 1.42

Biological target: shed MICA004 polypeptide (human) (UniProt Q29983)
Assay: as above
Remark: another data set of the same source

Binder | EC50 [µg/mL] | Max OD450
B1 | 0.129 | 1.83
B2 | 0.47 | 0.35

What follows are binders tested against shed MICB005 polypeptide (human) (UniProt Q29980) in the same assay as above.

Binder | EC50 [µg/mL] | Max OD450
B2 | 0.088 | 1.28

Biological target: shed MICA008 polypeptide (human) (UniProt Q29983)
Assay: as above
Remark: another data set of the same source

Binder | EC50 [µg/mL] | Max OD450
B1 | 0.105 | 1.15
B2 | 0.191 | 0.48

Biological target: shed MICA002 polypeptide (human) (UniProt Q29983)
Assay: as above
Remark: another data set of the same source

Binder | EC50 [µg/mL] | Max OD450
B1 | 0.09 | 3.3
B3 | 0.13 | 3.16
B4 | 0.32 | 3
B5 | 0.34 | 2.75
B6 | 0.31 | 2.89
B7 | 0.22 | 3.35
B8 | 0.04 | 3.32
B9 | 0.36 | 1.01
B2 | 0.14 | 3.1

Biological target: shed MICA004 polypeptide (human) (UniProt Q29983)
Assay: as above
Remark: another data set of the same source

Binder | EC50 [µg/mL] | Max OD450
B1 | 0.14 | 2.49
B3 | 0.2 | 1.72
B4 | 0.47 | 1.31
B5 | 0.46 | 1.23
B6 | 0.38 | 1.22
B7 | 0.42 | 1.13
B8 | 0.09 | 2.66
B9 | 0.34 | 0.11
B2 | 0.33 | 0.89

Biological target: shed MICB005 polypeptide (human) (UniProt Q29980)
Assay: as above
Remark: another data set of the same source

Binder | EC50 [µg/mL] | Max OD450
B3 | 0.72 | 1.37
B4 | 0.84 | 0.68
B5 | 0.56 | 0.17
B6 | 0.73 | 0.17
B7 | 0.41 | 2.42
B8 | 0.02 | 2.97
B9 | 0.1 | 2.86
B2 | 0.04 | 2.91

Biological target: shed MICA008 polypeptide (human) (UniProt Q29983)
Assay: as above
Remark: another data set of the same source

Binder | EC50 [µg/mL] | Max OD450
B1 | 0.22 | 0.34
B3 | 0.26 | 0.19
B4 | 0.38 | 0.16
B5 | 0.3 | 0.12
B6 | 0.44 | 0.13
B7 | 0.22 | 0.15
B8 | 0.2 | 0.16
B9 | 0.52 | 0.03
B2 | 0.22 | 0.15

What follows are binders tested against shed MICA004 polypeptide (human) (UniProt Q29983) (assay: ELISA: antibody titrated on anti-hFc plate, shed MICA004 captured, detection NKG2D-His + anti-His-HRP).

Binder | EC50 [µg/mL]
B1 | 0.071
B2 | 0.083
